Assay results from WO2023190852A1.

target: RBD derived from the Omicron strain (BA.1 strain; B.1.1.529) (SARS-CoV-2)

Row | Substance | binding inhibition rate (%)
1 | ADG2 (antibody) | < 80
2 | AZD1061 (antibody) | < 80
3 | AZD8895 (antibody) | < 80
4 | LY_CoV16 (antibody) | < 80
5 | LY_CoV555 (antibody) | < 80
6 | REGN10933 (antibody) | < 80
7 | REGN10987 (antibody) | < 80
8 | S309 (antibody) | < 80
